We go through one substance from patent US5621078.

The assay deals with epidermal growth factor receptor (Homo sapiens (Human)) (UniProt P00533).

TGF-alpha - PE40 AB (ligand) had an A431 CELL KILLING EC50 pM of 47 pM.
